Data: article doi:10.1101/2024.10.04.616518

Tests used:
[1] = target: bovine pancreatic chymotrypsin (bovine); assay: enzyme inhibition kinetics
[2] = target: ixochymostatin (Ixodes scapularis); assay: SPR
Sequence of ixochymostatin (Ixodes scapularis) (B7PCV3 21-91): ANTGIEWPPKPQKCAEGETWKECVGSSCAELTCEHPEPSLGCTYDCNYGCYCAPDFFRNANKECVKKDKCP

Sequence of ixochymostatin (natural protein) (B7PCV3 21-91): as above

**Q.** For ixochymostatin (natural protein), which Ki [1] is on record?
**A.** 0.14 nM

**Q.** And the Ki^app (Morrison equation) [1]?
**A.** 0.81 nM

**Q.** And the apparent Ki (Ki^app), from IC50 against protease concentration [1]?
**A.** 16 nM

**Q.** For bovine pancreatic chymotrypsin (enzyme), which Kd [2] is on record?
**A.** 0.076 nM

**Q.** And the koff [2]?
**A.** 1.2e-05 s⁻¹

**Q.** What about the kon [2] of the same substance?
**A.** 160000 M⁻¹ s⁻¹
